Here are results for twelve molecules from patent US20150231240A1, “ANTI-C16ORF54 ANTIBODIES AND METHODS OF USE THEREOF” (priority 2012, published 2015).

For experiment [1], the system named is KG-1 (acute myeloid leukemia) xenograft. The class given is in vivo, NOD-SCID mice. Particulars: Table 44; dose not given; KG-1 AML model. The protocol:
Subcutaneous tumors are generated by injection of 1×10^7 cancer cells in a mixture of PBS (without magnesium or calcium) and BD Matrigel™ (BD Biosciences) at a 1:1 ratio in the right flank of female SCID or nu^−/− mice. The injected total volume per mouse is […] with 50% being Matrigel (BD Biosciences). Mice are randomized once tumors reach a size between 65-200 mm^3. Antibodies are administered weekly, and body weights and tumors are measured once and twice weekly, respectively. Tumor volume is calculated as described (van der Horst et al. (2009) Neoplasia 11: 355-364). As a negative control, mice are injected with either purified mouse IgG or PBS; or a purified monoclonal antibody that recognizes an antigen other than C16orf54.
Anti-C16orf54 antibodies were tested for their anti-tumor activity in an animal-tumor model. For these studies, the cell line KG-1 (acute myeloid leukemia) was obtained from ATCC and cultured according to the suppliers' protocols. Animals were obtained from Taconic (Hudson, N.Y.). Studies were conducted with anti-C16orf54 antibodies and antibody-drug conjugates (ADCs) of these antibodies.
In these experiments, 4-6 week-old immunodeficient NOD-SCID female mice were used for the KG-1 tumor model. Mice were subcutaneously injected on the right flank with 6×10^6 viable cells (KG-1) in a mixture of PBS (without magnesium or calcium) and BD Matrigel™ (BD Biosciences). Once the tumor reached a size between 65-200 mm^3 mice were randomized. Anti-C16orf54 antibodies were administered weekly, and bodyweights and tumors were measured once and twice weekly, respectively. Tumor volume was calculated as described (van der Horst et al., supra). Experiments were performed on groups of at least eight animals per experimental point.
Statistical significance between treatment and control groups was calculated using the Graphpad Prism® software package and applying Student's two-tailed t-test. A p-value of less than 0.05 was considered significant.

Experiment [2] addresses T1, human C16orf54 (human, UniProt Q6UWD8 1-224).
T1 construct: also called huC16orf54; hC16orf54
T1 sequence: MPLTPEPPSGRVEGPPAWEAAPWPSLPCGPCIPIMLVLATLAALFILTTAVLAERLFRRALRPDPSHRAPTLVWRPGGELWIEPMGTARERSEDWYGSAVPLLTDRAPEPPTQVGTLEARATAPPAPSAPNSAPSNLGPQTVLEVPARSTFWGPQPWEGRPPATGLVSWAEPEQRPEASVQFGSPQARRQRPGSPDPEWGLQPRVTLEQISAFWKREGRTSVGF
The experiment in a line: cell-based or functional assay.

Experiment [3] has as its target T1, human C16orf54. The experiment is described as follows: flow cytometry, 10 ug/ml antibody, D42M1-huC16orf54 cells. The protocol:
(§1) Anti-C16orf54 antibodies which bound to human C16orf54 were tested for their reactivity with human C16orf54 and their crossreactivity with C16orf54 from cynomolgous monkeys (cyno C16orf54) using flow cytometry. Sarcoma cells transfected with and expressing human C16orf54 or cyno C16orf54 were washed with PBS with 0.1% BSA, incubated with FcX receptor blocking solution (BioLegend) for 15 minutes, incubated with 10 μg/ml of anti-C16orf54 antibody for 1 hour at 4° C., washed twice with PBS with 0.1% BSA, incubated with 20 μg/ml of R-Phycoerythrin-AffiniPure F(ab′)2 Fragment Goat Anti-Mouse IgG, Fcγ Fragment Specific (Jackson ImmunoResearch) for 30 minutes at 4° C., washed twice with PBS with 0.1% BSA, incubated with the viability dye TO-PRO-3 iodide (Life Technologies), and immediately analyzed on a MACSQuant Analyzer instrument (Miltenyi). For each cell line and anti-C16orf54 antibody, a fold change was derived by dividing the median fluorescence intensity for Phycoerythrin in the live cell population for the anti-C16orf54 antibody by the median fluorescence intensity for Phycoerythrin in the live cell population for the IgG isotype control antibody. A number of anti-C16orf54 antibodies (see, e.g., R29-8-57B, R29-8-136C, R29-7-1C, R29-67-7A, R29-67-4A, and R29-7-2A) bind human C16orf54 and also bind (e.g., are crossreactive with) cyno C16orf54.

Experiment [4] addresses T1, human C16orf54. The experiment is described as follows: flow cytometry titration, KG1 cells (endogenous human C16orf54). Background: A flow cytometer gives signals particle by particle.
The target of experiment [5] is T2, cynomolgus monkey C16orf54 (cynomolgus monkey (Macaca fascicularis), UniProt Q6UWD8 1-224 (human entry)).
T2 construct: also called cyno C16orf54; cyno-C16orf54
T2 chain: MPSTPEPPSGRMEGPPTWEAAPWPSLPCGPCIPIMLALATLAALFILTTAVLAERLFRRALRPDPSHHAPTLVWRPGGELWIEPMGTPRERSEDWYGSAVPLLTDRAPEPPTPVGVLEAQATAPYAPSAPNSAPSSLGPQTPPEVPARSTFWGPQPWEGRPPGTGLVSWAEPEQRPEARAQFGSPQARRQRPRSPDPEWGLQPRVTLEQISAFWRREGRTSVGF
The experiment in a line: flow cytometry, 10 ug/ml antibody, F279-cyno-C16orf54 cells. The protocol:
as §1

For the molecule `O=P1(N(CCCl)CCCl)NCCCO1` (stereo not shown) [Cyclophosphamide], in experiment [1], the TGI is on record as −42% and the Volume turned out to be 1580 mm^3.

B1: R29-7-1C-mcMMAF (protein)
VH: DVQLQESGPGLVKPSQSLSLTCTVTGYSITSDYAWNWIRQFPGNKLEWMGYISYSGSIRYNPSLKSRISITRDTSKNQFFLQLNSVTTEDTATYYCAREKYDNYYYAMDYWGQGTSVTVSS
VL: DIVMSQSPSSLAVSVGEKVTLSCKSSQNLLYSTNQKNYLAWYQQKPGQSPKLLIYWASTRESGVPDRFTGSGSGTDFTLTISSVKAEDLAVYYCQQYYSYRTFGGGTKLEIK
modifications: maleimidocaproyl-monomethylauristatin F (MC-MMAF) on reduced cysteine thiols of the antibody; positions not given
In the experiment with human C16orf54 [2], B1 registered an IC50 nM, cell viability, C16orf54 expressing sarcoma line 2, 72 hours of 0.2 nM and an IC50 (nM), cell viability, C16orf54 expressing Sarcoma line 1, 72 hours of 0.1 nM.

B2: R29-67-7A mcMMAF (protein)
VH: DVQLQESGPGLVKPSQSLSLTCTVTGYSITSDYAWNWIRQFPGNKLEWMGYINYSGRTRYNPSLNSRISLTRDTSTNQFFLQLNSVTTEDTATYYCARENYDYEFYAMDYWGQGTSVTVSS
VL: DIVMSQSPSSLAVSVGEKVTMSCKSSQNLLYSSNQKNYLAWYQQKPGQSPKLLIYWASTRESGVPDRFTGSGSGTDFTLTISSVKAEDLAVYYCQQYYIYRTFGGGTKLEIK
modifications: maleimidocaproyl-monomethylauristatin F (MC-MMAF) on reduced cysteine thiols of the antibody; positions not given
In the experiment with human C16orf54 [2], B2 returned an IC50 nM, cell viability, C16orf54 expressing sarcoma line 2, 72 hours of 0.1 nM and an IC50 (nM), cell viability, C16orf54 expressing Sarcoma line 1, 72 hours of 0.1 nM.

B3: R29-8-50C (antibody, V domains shown)
VH: EVKLVESGGGLVKPGGSLKFSCAASGFTFSSYAVSWVRQTPEKRLEWVASITSGGRTYYPDSVKGRFTISRDNARSMLYLHMSSLRSEDTAMYYCTRGWDENDLWGQGTTLTVSS
VL: DVVMTQTPLSLPVSLGDQASISCRSSQSLVYSNGNTYLHWYLQRPGQSPQLLIYKVSNRFSGVPDRFSGSGSGTDFTLKISRVEAEDLGVYFCSQTTHVPWTFGGGTKLEIK
notes: Murine monoclonal antibody from a hybridoma
As for B3, the “Median fold change relative to IgG control” value was 159 fold in the experiment with human C16orf54 [3] and 3.2 fold in experiment [5]. Also, the EC50 with human C16orf54 [4] was determined as 700 pM.

B4: R29-8-28C (antibody, V domains shown)
VH: EVKLVESGGGVVKPGGSLTLSCAASGFTFSNYAVSWFRQTPEKRLEWVASITSGGRTYYPDSMKGRFTISRDNARNILYLQMSSLRSEDTAIYYCGRGWDENDYWGQGTTLTVSS
VL: DVVMTQTPLSLPVSLGDQASISCRSSQSLVYSNGNTYLHWYLQKPGQSPKLLIYKVSNRFSGVPDRFSGSGSGTDFTLKINRVEAEDLGVYFCSQTTHVPWTFGGGTKLEIK
notes: as for B3
In the case of B4, the “Median fold change relative to IgG control” value was found to be 156 fold in the experiment with human C16orf54 [3] and 3.3 fold in experiment [5]. In the experiment with human C16orf54 [4], this molecule yielded an EC50 of 2100 pM.

B5: R29-7A-53A (antibody, V domains shown)
VH: QVQLKESGPGLVAPSQSLSITCTVSGFSLTDYAISWIRQPPGKGLEWLGVIWGGGRTYSNSALKSRLSISKDNSRSQIFLKMNSLQTDDTAMYYCAKHEEVSRFAYWGQGTLVTVSV
VL: DVVLTQTPLSLPVSLGDQASISCRSSQSLVYSNGNSYLHWYLQKPGQSPKLLIYKVSNRFSGVPDRFSGSGSGTDFTLKITRVEAEDLGVYFCSQSTHIPLTFGAGTKLELK
notes: Murine monoclonal antibody from a hybridoma; also called R29-7-53A
Consider B5, for which the “Median fold change relative to IgG control” value is 5.7 fold in the experiment with human C16orf54 [3] and 1.2 fold in experiment [5].

B6: R29-7A-54C (antibody, V domains shown)
VH: QVQLKESGPGLVAPSQSLSITCTVSGFSLTDYAISWIRQPPGKGLEWLGVIWGGGRTYSNSALKSRLSISKDNSRSQIFLKMNSLQTDDTAMYYCAKHEEVSRFAYWGQGTLVTVSV
VL: DVVLTQTPLSLPVSLGDQASISCRSSQSLVYSNGNSYLHWYLQKPGQSPKLLIYKVSNRFSGVPDRFSGSGSGTDFTLKITRVEAEDLGVYFCSQSTHIPLTFGAGTKLELK
notes: Murine monoclonal antibody from a hybridoma; also called R29-7-54C
Turning to B6, the “Median fold change relative to IgG control” value amounted to 12.1 fold with human C16orf54 [3] and 1 fold in experiment [5].

B7: R29-8-120B (antibody, V domains shown)
VH: KVNLVESGGGLVKAGGSLKLSCAASGFTFSIYAMSWFRQTPEKRLEWVASITGGGTNFYPDSVRGRFTISRDNVRNILYLQMSSLRSEDTAMYYCARGWDENDYWGQGTTLTVSS
VL: DVVMTQTPLSLPVSLGDQASISCRSSQSLVYSNGNTYLHWYLQKPGQSPKLLIYKVSNRFSGVPDRFSGSGSGTDFTLKISRVEAEDLGVYFCSQSTHVPWTFGGGTKLEIK
notes: as for B3
With B7, the “Median fold change relative to IgG control” value with human C16orf54 [3] was 106 fold; in experiment [5], 5.2 fold. The molecule further gave an EC50 in the experiment with human C16orf54 [4] of 2600 pM.

B8: R29-8-9B (antibody, V domains shown)
VH: EVKLVESGGGVVKPGGSLKLSCAASGFTFSSYAMSWFRQTSEMSLEWVASITGGGGTYYPDSVKGRFTISRDTVRNILYLQMRSLRSGDTAIYYCARGWDENDYWGQGTTLTVSS
VL: DVVMTQIPLSLPVSLGDQASISCRSSQSLVFSNGNTYLHWYFQKPGQSPKLLIYKVSNRFSGVPDRFSGSGSGTDFILRISRVEAEDLGVYFCSQSTHVPWTFGGGTKLEIK
notes: as for B3
For B8, the “Median fold change relative to IgG control” value came to 194 fold with human C16orf54 [3] and 2 fold in experiment [5]. This molecule also returned an EC50 with human C16orf54 [4] of 1500 pM.

B9: R29-8-19B (antibody, V domains shown)
VH: EVKLVESGGGLVKPGGSLKFSCAASGFTFSSYAVSWVRQTPEKRLEWVASITSGGRTYYPDSVKGRFTISRDNARSMLYLHMSSLRSEDTAMYYCTRGWDENDLWGQGTTLTVSS
VL: DVVMTQTPLSLPVSLGDQASISCRSSQSLVYSNGNTYLHWYLQKPGQSPQLLIYKVSNRFSGVPDRFSGSGSGTDFTLKISRVEAEDLGVYFCSQTTHVPWTFGGGTKLEIK
notes: as for B3
For the molecule B9, the figures for the “Median fold change relative to IgG control” value (with human C16orf54 [3]; in experiment [5]) were 198 fold and 4.5 fold, respectively. In the experiment with human C16orf54 [4], this molecule gave an EC50 of 900 pM.

B10: R29-8-36C (antibody, V domains shown)
VH: EVKLVESGGGLVKPGGSLKFSCAASGFTFSSYAVSWVRQTPEKRLEWVASITSGGRSYYPDSVKGRFTISRDNARSMLYLHMSSLRSEDTAMYYCTRGWDENDLWGQGTTLTVSS
VL: DVVMTQTPLSLFVSLGDQASISCRSSQSLLYSNGNTYLHWYLQRPGQSPQLLIYKVSNRFSGVPDRFSGSGSGTDFTLKISRVEAEDLGVYFCSQTTHVPWTFGGGTKLEIK
notes: as for B3
Take B10: the “Median fold change relative to IgG control” value with human C16orf54 [3] amounted to 184 fold; in experiment [5], 3.6 fold. In the experiment with human C16orf54 [4], the EC50 is 600 pM.

B11: R29-8-12A (antibody, V domains shown)
VH: EVKLVESGGGLVKPGGSLKFSCAASGFTFSSYAVSWVRQTPEKRLEWVASITSGGRTYYPDSVKGRFTISRDNARSMLYLHMSSLRSEDTAMYYCTRGWDENDLWGQGTTLTVSS
VL: DVVMTQTPLSLPVSLGDQASISCRSSQSLVYSNGNTYLHWYLQKPGQSPQLLIYKVSNRFSGVPDRFSGSGSGTDFTLKISRVEAEDLGVYFCSQTTHVPWTFGGGTKLEIK
notes: as for B3
Consider B11, for which the “Median fold change relative to IgG control” value with human C16orf54 [3] was found to be 193 fold; in experiment [5], 3.6 fold. This molecule also yielded an EC50 with human C16orf54 [4] of 1100 pM.

By EC50 is commonly meant the midpoint of the concentration-response curve.
